According to patent US8124835B2, “Acyl-coa-dependent diacylglycerol acyltransferas 1 (DGAT1) gene from Tropaeolum majus, protein encoded thereby and uses thereof” (National Research Council of Canada, priority 2006, dated 2012):

Test system: Arabidopsis mutant line AS11
Assay: Complementation of Arabidopsis AS11 DGAT mutant by seed-specific expression of TmDGAT1
Format: in vivo, Arabidopsis thaliana
Conditions: homozygous T3 seed lines, napin promoter
Description: FIG. 9. Complementation of A. thaliana AS11 mutant seed oil and fatty acid profile by expression of TmDGAT1. Transformation of Arabidopsis mutant line AS11 with the TmDGAT1 cDNA under the control of a napin promoter leads to a restoration of (A) fatty acid composition profile of the transgenic lines and (B) the WT level oil content. Total oil content (as percentage of mature seed dry weight) and fatty acid composition (% wt/wt) were determined on the seed oil extracted from T3 seeds of Arabidopsis pSE:WT and pSE:AS11 (empty plasmid) controls and from napin:TmDGAT1 AS11 transgenics lines.
The final binary vector (napin/DGAT/nos) was verified and electroporated into Agrobacterium tumefaciens cells strain GV3101 containing helper plasmid pMP90 (Koncz and Schell, 1986). Plasmid integrity was verified by DNA sequencing following its re-isolation from A. tumefaciens and transformation into E. coli. […]
The coding region of the TmDGAT1 (SEQ. ID. NO: 2) was cloned into a pSE vector behind the seed-specific napin promoter. […] At the same time several independent plasmid only control AS11 transgenic (pSE vector without DGAT1 insert) lines, as well as napin:TmDGAT1 in WT and pSE in WT transgenic lines were propagated and analyzed. […]

B1: TmDGAT1: Tropaeolum majus acyl-CoA-dependent diacylglycerol acyltransferase 1, 518 amino acids (SEQ ID NO: 3), encoded by ORF SEQ ID NO: 2 (protein, listed as Tropaeolum majus)
chain: MAVAESSQNTTTMSGHGDSDLNNFRRRKPSSSVIEPSSSGFTSTNGVPATGHVAENRDQDRVGAMENATGSVNLIGNGGGVVIGNEEKQVGETDIRFTYRPSFPAHRRVRESPLSSDAIFKQSHAGLFNLCIVVLIAVNSRLIIENLMKYGWLIDTGFWFSSRSLGDWSIFMCCLTLPIFPLAAFIVEKLVQRNHISELVAVLLHVIVSTAAVLYPVIVILTCDSVYMSGVVLMLFGCIMWLKLVSYAHTSSDIRTLAKSGYKGDAHPNSTIVSCSYDVSLKSLAYFMVAPTLCYQPSYPRSSCIRKGWVVRQFVKLIVFIGLMGFIIEQYINPIVRNSKHPLKGDFLYAIERVLKLSVPNLYVWLCMFYSFFHLWLNILAELLRFGDREFYKDWWNAKTVAEYWKMWNMPVHRWMVRHLYFPCLRNGIPKEGAIIIAFLVSGAFHELCIAVPCHVFKLWAFIGIMFQVPLVLITNYLQEKFSNSMVGNMIFWFIFCILGQPMCVLLYYHDLINLKEK
In the case of B1, the “TAG levels of AS11 seed after expression” value is reported as “at least as high as that found in wild type Arabidopsis” and the “fatty acid composition of AS11 seed oil after expression” value is reported as “restoring the proportions of 18:1, 20:1 and 18:3 to give a WT profile”.
